Results as given in patent US20250197448A1, “CYCLOPEPTIBODIES AND USES THEREOF” (University of Rochester, priority 2022, published 2025).
Starred links: 1 amine or outer side, 2 acyl side, 3 side chain; linkers in the order of their positions; H or OH if unused. Positions of bridges follow the written chain, without caps; N, C: chain ends. Non-standard residues stand in square brackets, D forms with d. No end group written: not given here. pCaaF = p-(2-chloroacetamido)-phenylalanine, O=C(CCl)Nc1ccc(C[C@H](N[*:1])C(=O)[*:2])cc1

Legend:
[1] = biological target: T1, PD-L1 (Homo sapiens, UniProt Q9NZQ7); assay: in vitro PD-L1 binding assay (plate-immobilized PD-L1); details: Q6 vs. Q12 spacer
T1 construct: poly-histidine (C); made in house
Description: Streptavidin Binding Assay. For the streptavidin binding assays, streptavidin-coated plates (Sigma-Aldrich) were used. For the Keap1, Shh and PD-L1 binding assay, target protein was immobilized on microtiter plates by incubating 100 μL of a 4 μM protein solution in PBS buffer overnight at 4° C., followed by decanting the protein solution and blocking with 0.5% bovine serum albumin in PBS for 2 h at room temperature. After washing (3×150 μL of PBS with 0.05% Tween-20), each well was incubated with 100 μL of purified FLAG-tagged cyclopeptibody at varying concentrations for 1 hour at room temperature. After washing three times with wash buffer, each well was incubated with 100 μL of 1:2500 dilution of HRP-conjugate mouse anti-FLAG polyclonal antibody (Sigma-Aldrich) for 1 hour at room temperature. After washing three times with wash buffer, 100 μL of 2.2 mM o-phenylenediamine dihydrochloride, 4.2 mM urea hydrogen peroxide, 100 mM dibasic sodium phosphate, and 50 mM sodium citrate, pH 5.0, were added to each well, followed by measurement of the absorbance at 450 nm after 10-20 min using a Tecan Infinite 1000 plate reader. Equilibrium dissociation constants (Kp) were determined by fitting the dose-response curves to a 1:1 binding isotherm equation via nonlinear regression. using SigmaPlot. Mean values and standard deviations were calculated from experiments performed in triplicate. […]

[2] = biological target: T2, PD-L1 receptor on MDA-MB-231 cells (Homo sapiens, UniProt Q9NZQ7); assay: flow cytometry of MDA-MB-231 cells, PD-L1 labeling with FITC anti-human IgG Fc; assay type: cell-based
T2 construct: known to express high levels of PD-L1 on their surface; endogenous in cells; host or cells: MDA-MB-231
Description: The cells were then incubated with fluorescein-conjugated anti-human IgG Fc antibody and analyzed by flow cytometry. The same experiment was carried out in parallel using commercially available anti-PD-L1 antibody as positive control and various negative controls.
Flow Cytometry Analysis. […] When confluent, media was aspirated, cells were washed once with 1×DPBS (no calcium, no magnesium) (Gibco). Adherent cells were detached from the petri dish with 1 mL of accutase (Gibco) pre-warmed to 37° C., followed by incubated for 5 min at 37° C. Cells were spun down using centrifugation. Supernatant was removed and cells were washed three times with staining buffer (1×PBS with 0.5% BSA). Cells were resuspended in Eppendorf tubes in 100 μL PBS at a concentration of 107cells per mL. […] Eppendorf tubes were then placed on the platform shaker for gently shaking for 1 hour at room temperature. After 1 hour, cells were spun down using centrifugation, then supernatant was removed. […] Cells were washed as described above, then resuspended in 400 μL staining buffer. […] The cells of interest were gated using Forward and Side scatter (FSC/SSC). 10,000 singlet events were collected for each specimen.

[3] = biological target: T3, PD-L1 expressed on the surface of MDA-MB-231 cells (Homo sapiens, UniProt Q9NZQ7); assay: confocal microscopy imaging of MDA-MB-231 cells; assay type: cell-based; details: anti-Fc-FITC staining
T3 construct: known to express high levels of PD-L1 on their surface; endogenous in cells; host or cells: MDA-MB-231
Description: Cyclopeptibodies can be applied for detection and imaging of a target protein in cells and other biological systems. To illustrate this aspect of the invention, breast cancer cells MDA-MB-231 cells were treated with PD-L1 targeting cRK10 (pCaaF)-Tras-Fc. MDA-MB-231 cells are known to express high levels of PD-L1 on the cell membrane. After treatment with cRK10 (pCaaF)-Tras-Fc, the cyclopeptibody bound to the surface PD-L1 was labeled with fluorescein-conjugated anti-human Fc antibody (‘anti-Fc-FITC’) and cells were imaged using confocal microscopy.

T2 sequence (Q9NZQ7 19-290): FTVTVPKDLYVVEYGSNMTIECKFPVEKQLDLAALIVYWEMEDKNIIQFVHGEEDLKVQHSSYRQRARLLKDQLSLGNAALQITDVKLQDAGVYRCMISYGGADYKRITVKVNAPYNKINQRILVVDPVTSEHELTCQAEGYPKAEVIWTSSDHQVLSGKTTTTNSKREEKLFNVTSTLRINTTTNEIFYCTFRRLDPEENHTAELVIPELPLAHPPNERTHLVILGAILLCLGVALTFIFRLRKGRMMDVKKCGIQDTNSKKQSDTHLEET
T3 sequence (Q9NZQ7 19-290): as above
T1 sequence (Q9NZQ7 19-290): as above

## FLAG-(GS)2-TYLCGAISLAZKAQIKESL-(Q)6-(Fc)^1-H6 (DYKDDDDKGSGSTYLCGAISLA[pCaaF]KAQIKESLQQQQQQ-{Fc-H6}; thioether 16-23) [cRK10-Tras-Fc]
[1]
  higher PD-L1 binding affinity compared to FLAG-cRK10-Q12-Tras-Fc-His: six-fold higher
[2]; MDA-MB-231 cells, 0.09 mg/mL
  median fluorescence intensity (MFI) relative to positive control: comparable median fluorescence intensity (MFI) to that of the positive control anti-PD-L1 antibody
[2]; concentration not given at the place
  staining / labeling of PD-L1 receptors on MDA-MB-231 cells (in words): selective labeling of PD-L1 receptors
[3]
  recognition of surface PD-L1 by fluorescent imaging: able to efficiently recognize PD-L1
